Results from the domain aggregation screens of Martell et al. (2025).

Test: soluble fraction after stress (log2 fold change); higher = more stays soluble; pooled small domains, quantitative proteomics
Conditions: stress: pH 4
In short: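 Aggregation propensity is read out as the fold change in how much of each domain remains soluble after acid stress. The custom small-domain libraries were pooled, held at pH 4 and analysed with high-throughput quantitative proteomics. On the log2 scale used, higher values mean more of the domain stayed soluble.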

Sequence: HMSEEIKVPNFVGSTFEKAQALAQETGLEIARGEDVYSPDQEEGKITSQNPTADSVVSPGKLITVYVSKG
- soluble fraction (log2): 0.0365

Sequence: HMSTDNINYKNILIASLLIHAAKIDENYTENEKNIIKKALIELDEIDSKKADEIMILAEKKE
- soluble fraction (log2): -0.271

Sequence: HMGGGFLVPSLVGKSLEEARSLSELRGFKLEVGDYVISSEYPAGRVTRQNPANGAKGQEGDVIKVEVSS
- soluble fraction (log2): 0.153

Sequence: HMLLTASNYFKETKGINFSELPEALQKGHSFVIKSTENGTNWNAYSTSQNIQRVIDAYFSKLDEYLEKNQ
- soluble fraction (log2): -0.202

Sequence: HMPVSRMRARHEALARGVMGIHAGGFSAVYGYRKVWHGLIGKGWDPGEVGRDQVMNIMRGLGMQGVRR
- soluble fraction (log2): 0.22

Sequence: HMGSDAFDISKLNLVGKTKESAESLLKENGFSVDTKEEASDTAAKGTVISYSPTKPKNGERVTLTVSSGK
- soluble fraction (log2): 0.243

Sequence: HMGEQYYVLIDNKQNGPHNINAIQKMIDQNIVNRQTLIWKKGMTDWGNIMDDKDLKEMVNKIP
- soluble fraction (log2): 0.0559

Sequence: HMIITLNIENLKRARENAGLTQTQAAQKIGVSDGTYKNYEQGKREPNGDKIVTIANAFGVTTDYLLGR
- soluble fraction (log2): 0.22

Sequence: HMFMPGTIIKQFRELRNYSQDYVSRKMGISQNAYSKIENNITQLTVTHVKQLSSILDVPIVELLR
- soluble fraction (log2): -0.366

Sequence: HMDRIISTPMPGRVVKIPVTEGEPVAKGATVITISAMKMESEYKSPIDGIVKKIHVSEGDNINANQPLIEI
- soluble fraction (log2): -0.112

Sequence: HMNREENIQIGRDLLERELRKQGMDLQENLRQEVLLDGAKKLGFNNTDDLLAAIGDLKVTPAMFIGKIA
- soluble fraction (log2): -0.168

Sequence: HMQGATVYIKSDDIGKTTNEQGSFNFDKLKKNRYTLEISFIGYETKNLQAYTDRENIVQLNRKS
- soluble fraction (log2): -0.527

Sequence: HMNQKVRQLLSQAQAEMERKNYKQAIKLLDQALAIEPHSGELHFMKGYAWMSMGEFEKALESLYEARNYA
- soluble fraction (log2): -0.754

Sequence: HMEITTEDIAAQVASWIVRLSEDLTSTDRAALQIEFEQWQQTDSRRAEIAHKMLSLIGQAEQLRKT
- soluble fraction (log2): -0.614

Sequence: HMVDSLTIGRRIRQLRTERGMTLEELAAAVGRAPSQLSMIENGRREPKLTLLQAIARALGSTLDALLE
- soluble fraction (log2): -0.404

Sequence: HMFELDELDLVILKNLANGLSKKQIRVKLKKMDLRPNSESAIDKRVSKLFDEFGAKNSTELVAKLIREGL
- soluble fraction (log2): -0.234

Sequence: HMIGIEALAGEIDRVRQVLTGGGGLSDVQLFSQLKALNEIKAALGASPDPRAPELVQRVDQLLEAAFRS
- soluble fraction (log2): -1.1

Sequence: HMELRIREILESKDIKVSSLAETVGITRANMSNIVNGKSTPSLETLEKIANALGVDITELFA
- soluble fraction (log2): -0.573

Sequence: HMRLPVELTDREVEVLRLLAQAMSNGEIARELYIGEATVKTHVSNVLQKLGARDRVAAVVWAHRYGL
- soluble fraction (log2): -1.16

Sequence: HMGFLTKTQRLEILLHLKDEPYYNVEKLKELIKNRYGIVYQSSQSYYDLLKEAGLSWHQTQA
- soluble fraction (log2): 0.00834

Sequence: HMLVIMKTGASEEEIGRVIERIEGEGLSAHVSRGTERTVIGVIGQGVDVHRIAGVLGGMSGVESLVPIS
- soluble fraction (log2): 0.0269

Sequence: HMFPELSEEAKVIVDALSKENDQQLNVLIANTGMAVGTMQAKLFELEMQGVVKPLAGSVYHLM
- soluble fraction (log2): 0.22

Sequence: HMEAAETAVVTGTIVNIRSGPTLDFEAFAQVKQGDRLPVLDKFYNWYYVKLPSGVNGWISGQLVRIEQ
- soluble fraction (log2): -0.673

Sequence: HMRGLFTVYMVGEKASRVGELDEEMVYESRIGDVFALGATSWRIEEITHDRVLVSPAYGQPGRLPFWH
- soluble fraction (log2): -1.72

Sequence: HMYFDDEELDTYKGRASNAYSPDETAQFEEVMTTMRPDEVAAWLRSLQLRGINLPDELKDEAIMLVE
- soluble fraction (log2): -1.22

Sequence: HMSDHSSLAGKEGVAVTPLRPAGTAEIDGKRMDVVTMGDYIKAGDHIKVVKVEGNRIIVAKN
- soluble fraction (log2): -0.0102

Sequence: HMTAAPEVRVEGLFKGAAVLKIDGQQVMLKKGRSHSSGVTLVDANAHRAIVEIDGQRHELALHMA
- soluble fraction (log2): 0.0925

Sequence: HMAVSPEEQKKRIIELFRNRNEVSFKEIFDLPTKGHFVITLLAVLDLARQQIVIMEQLENEGIIKFTKGA
- soluble fraction (log2): -0.232

Sequence: HMPHSTTDFSVSPDERQIVYSTNLQGRYDLWALDHNQGYPYPLTKKGQMSFFIKHLPGSQMILTGFD
- soluble fraction (log2): 0.0618

Sequence: HMLEYIEPRTAVQIHGIKAKPELNGKRGMVMGYAPERMRYRVRIDVGEGTGGKESEEVYLKPENVIAVK
- soluble fraction (log2): 0.101

Sequence: HMLRVGASVTANGKYWYDSYGSKPFGTANNLSTTVTRIVPGNPYPIHIGSYGWLQESQIQIT
- soluble fraction (log2): 0.204

Sequence: HMYVQDPVDRLVLESALRLLREQEREIIFLHLVAGLKHREIAGLLHLPLSTVLSGYRRALTKMKSYLEE
- soluble fraction (log2): 0.0239

Sequence: HMGKTTQEIEERSSTSTLTLTQTPKEIISVQGKKSDQSFFTNIQYTQNGKVIVPKQTGIYDTIKVVFTVSL
- soluble fraction (log2): -0.256

Sequence: HMFLTSDEGKIMQLLEDKQRITRKDAQELLGVSQSTAGRILKTLVDNGQITQRGGGRTTRYELIK
- soluble fraction (log2): 0.22

Sequence: HMKYKKYKLLKDLPTFKAGQLAYISKTGNLIAGTPENQKTTETGLIIMIYHETTLKKFPNILTEWFEEIE
- soluble fraction (log2): -1.17

Sequence: HMNKELVVPDLTDMRVKDAEFEAHQVGMRTEIVDSVYVRRLKRGYVYKQNPVPGSKVKKGRRIALTINAV
- soluble fraction (log2): 0.1

Sequence: HMYQPLYEQIKRMLTQSLIDGEWKAGEMIPSEMELAARFKVSQGTVRKAIDELVSENILMRRQGKGTFVH
- soluble fraction (log2): 0.22

Sequence: HMPPPVERAIRKLGHDLSLARRRRRISQDSMAQRMGASVSTVRRIEKGDPRIPIHFIARAMMILGDLKAL
- soluble fraction (log2): -0.105

Sequence: HMRMTPRQALDDLIREREETYAAVSRLLGRNTAYIQQYIKRGTPARLDQSDIAQLALHFDVPAKLLGGKE
- soluble fraction (log2): ≥ 0.43

Sequence: HMYKNLRAFRESLGMTQKDFAASLSIGLSTYNGYEVGAREPKSDFWIAVARKYGVTIDYLMGFSDDPHK
- soluble fraction (log2): 0.195

Sequence: HMIETLGDATFKRLKAMILDGTLEPGTRLSEKKFADHLGVSRTPVREAIGQLVSEGLAKRSAGSAPVVSS
- soluble fraction (log2): 0.069

Sequence: HMYSRQRDLILKALRENVVHPTADFIYTVLKEKEPNLSLATVYRNLNLLANEGIIRKIEGLDGVAHFDH
- soluble fraction (log2): 0.059

Sequence: HMQNELAEARSQLAERKNIDQAKLILMKKRNISEPEAYKLLRSHAMQTNRRVAEVAESIITAESLLG
- soluble fraction (log2): 0.0831

Sequence: HMVNSADLAAKPFIDLLVSTRQQLREAKQYDLADTIRDELTNHGITIEDKPQGSEWQYEFNPNS
- soluble fraction (log2): -0.499

Sequence: HMVDVNLLKYYVMESGKSLTDVAAAIGVTPATLHRKMSGESDFYRKEMQDIASYLGLDRDTIDRIFF
- soluble fraction (log2): -0.892

Sequence: HMSEPRYRQLATILAQEIRSNHSAGDQLPSEQALAKRFEVNRHTVRRAVDELVAAGMVTRHQGWGTQVV
- soluble fraction (log2): 0.243

Sequence: HMTKEEFLYELKKELSALDSAEATAYNLRYYSDYIDAEIAKGRSEQEVLDELGNPRWLVNSIKESG
- soluble fraction (log2): -0.521

Sequence: HMARLQEVVVRVPVEDGQTLAAIYREAEVIERADEGTGVLLTVRIPAPLLGRLRRLEGVHVQP
- soluble fraction (log2): -0.348

Sequence: HMSPDLNEVEEKVFRALNGVESMHVNKLGIELNLPVSELFFTLLELEMKNVVKALPGGMYKL
- soluble fraction (log2): -1.1

Sequence: HMTLSVRQRMSQIINKIDVSNFTDFTKLFDINEGRLGVAVTFLAILELLKDTMIDVIQNEEFAPLHIKVSS
- soluble fraction (log2): -0.339

Sequence: HMASLASVAYETLRQALDNFQYVPGDRFSESEVGQQLGMSRTPVREALVRLQREGYISVLPKMGWVVNQ
- soluble fraction (log2): -0.953

Sequence: HMGTSSAEIAAELRAQIFAGELRPGEMLPSAREITGTWNVAIATASRVHALLRSEGLATPVPGVGTVVAT
- soluble fraction (log2): -0.17

Sequence: HMLKQLGRQEGRQEGAVDALRTVLALQIEQRFGPLDPTVQALIVAADIDALQRALSRVAVVSDLGAVFPP
- soluble fraction (log2): -0.862

Sequence: HMDEWFPVNDDYKFMVGDEVRTPDGLVKVVATHNDSATFYGKIITPIHDDVLKGETYEYRSYEAQVLA
- soluble fraction (log2): -1.26

Sequence: HMNGELSQRQWQILRLIAQGLSNEQMARQLFVAPSTIKTHINHLYAKLGVRTRAEAQAIARQKLMA
- soluble fraction (log2): -0.0448

Sequence: HMAPAILTVQVKPDKIREIIGPGGKMIRMIQSETNTRVEVDDSGLVKIAAVSKEEGEAALKMVSDITME
- soluble fraction (log2): -0.177

Sequence: HMGAVGISQKVTSLETAVLGKNFAKDPLIDRVARLEQTVLPKQAEANASLSLPERVSKLLEKVPIAAG
- soluble fraction (log2): 0.136

Sequence: HMVGNYYDILGVPETATQDAIKKAFRSLAQQHHPDKNPDDPGAEAMFKKVSEAYQVLSDPDKRQTYDASL
- soluble fraction (log2): -0.0611

Sequence: HMSEDAVKFRAAVEVENGLAQRNLNKNQAALILGVDRSYFTYIISGKKTPSPDMAKRIGLLLGFDWRVFYA
- soluble fraction (log2): -0.324

Sequence: HMLLREKLESVLPFISVSALAKTYFKRSPQWFYQRLNGSIVNGKPIRFNDAELKTLAGALTDIGKKISQAA
- soluble fraction (log2): 0.157

Sequence: HMSVFMIIVLKQHAPQEFVDMLMSSIKAKGVQIDVSKGARKTILGLVGNTSVIDREQIAGYEYVDKVIRV
- soluble fraction (log2): -0.289

Sequence: HMHGEAEFLDATAVVMEKLNPGGLVKIKGEIWQAVSKDGHTIQEGEKVRVFERQGITLLVGHF
- soluble fraction (log2): -0.223

Sequence: HMELKYIDYDEALVVYAKTVTASGGGLSGVKDEGGIRKVLDFVQNDLYYPTFVDKLTYLVFGL
- soluble fraction (log2): -0.155

Sequence: HMQPDPAFVAWVDANPWYKENRTLRALVHDYAEEVKRQEPALIGTAFLDRVKQLVQSEHPELFD
- soluble fraction (log2): -0.502

Sequence: HMGLVVIGTEAGYPAEKAGILAGDRIRKLNGAAVPDYDTFLTALAARKGEPSAIELERDGKTLEVTVSPL
- soluble fraction (log2): -0.21

Sequence: HMSATPQRMSIINELDSARKNLSAYDLRDSLKDKGHSFNISTIYRVLSFWIDVGVVHKMDSSNTYL
- soluble fraction (log2): -0.315

Sequence: HMRPYAYGTGRRKSSTARVHLIPNGSGSITINGRTLDEYFGLETLKLIVRQPLAATETAEKFDVEATVV
- soluble fraction (log2): -0.509

Sequence: HMESAEQTGEELAARVNVLQTVSQALARELGREAAVEELADKMKMTVDEVKDIMKMAMDAMSM
- soluble fraction (log2): -1.59

Sequence: HMKQNRNLPVQIINNGKIIESVMTEFNLDIDWVYSEAKRLGYKNIKDIFYAGINRDGQFFIVPLF
- soluble fraction (log2): -1.35

Sequence: HMSETEEWTVEGGQAGDRIDRHVAAMLGDDVSRSQVQQWIRAGRVTVNGRAVKPSDTVEEGDRVAVDLPEP
- soluble fraction (log2): -0.397

Sequence: HMDSNPLSEREQEVLQLVAKGASNQTIAEQLFLSNGTIRNYMTAIFNKLNANNRTDAVRIARENGW
- soluble fraction (log2): -0.24

Sequence: HMKESRFDYDAVLLYSDKDSITEVKDAVQHLTKEFGSVFTTKKIPEKATFGKLFRIEKGEVNIIEDN
- soluble fraction (log2): -1.22

Sequence: HMTMKVTADILNMRSEASTNSDIVTKLKKDDELKVIEETKDDDGVTWVKVDFNGQVGFVSKEFLG
- soluble fraction (log2): -0.623

Sequence: HMFAADIGVGIVDADSLRVRSEPSTGAPIVTSLLRGTQVTVQEKLDGWYRITYNDVSGFVSAEYLIFTADE
- soluble fraction (log2): -0.297

Sequence: HMTIGKIVNIIEGSYANVRSAPDQNSEPIGRAYPGDAFLVDPLGSSGDWVKVTYEGQSGFIFQAYISV
- soluble fraction (log2): -1.28
